According to patent US20210301005A1 (Genentech, published 2021):
Read-outs that look alike come from different tables or passages of the source.

What was measured:
[1] = biological target: T1, human TGFβ1, mature receptor-binding domain (human, UniProt P01137 279-390); experiment: cell-based or functional assay
[2] = biological target: T2, human TGFβ3, mature dimeric form (human, UniProt P10600 301-412); experiment: cell-based or functional assay
T2 sequence: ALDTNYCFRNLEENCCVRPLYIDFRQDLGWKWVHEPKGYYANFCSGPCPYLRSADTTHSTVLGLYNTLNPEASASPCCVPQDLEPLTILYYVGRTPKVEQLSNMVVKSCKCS

[3] = biological target: T3, human TGFβ2, mature receptor-binding domain (human, UniProt P09858 303-414 (pig entry), The mature TGFβ2 is a disulfide-linked homodimer of this 112-residue chain. The 4A11 epitope spans both monomers (p-1207).); experiment: cell-based or functional assay
T3 sequence: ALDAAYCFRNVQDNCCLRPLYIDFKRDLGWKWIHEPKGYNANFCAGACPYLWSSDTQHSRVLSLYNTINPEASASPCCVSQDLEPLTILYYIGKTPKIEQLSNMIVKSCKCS

[4] = biological target: T1, human TGFβ1, mature receptor-binding …; experiment: BIAcore T200
Procedure: (§1) For binding affinity determinations of all humanized 2A10 antibodies, Surface Plasmon Resonance (SPR) measurement with a BIAcore™-T200 instrument was used. Briefly, series S CM5 biosensor chip with protein A was first applied to capture each humanized 2A10 variant to achieve approximately 100 response units (RU) on each flow cell, following by injection of 3-fold serial dilutions of human TGFβ1, TGFβ2 or TGFβ3 (0.02 nM to 5 nM) in HBS-EP buffer (0.01M HEPES pH 7.4, 0.15M NaCl, 3 mM EDTA and 0.05% v/v surfactant P20) at 25° C. with a flow rate of 50 μl/min for kinetics measurement. Association rates (ko.) and dissociation rates (koff) were calculated using a simple one-to-one Langmuir binding model (BIAcore T200 evaluation software version 2.0) to determine the equilibrium dissociation constant (KD), which was calculated as the ratio koff/kₒₙ.

[5] = biological target: T2, human TGFβ3, mature dimeric form; experiment: BIAcore T200
Procedure: as §1

[6] = biological target: T3, human TGFβ2, mature receptor-binding …; experiment: BIAcore T200
Procedure: as §1

[7] = biological target: T1, human TGFβ1, mature receptor-binding …; experiment: cell-based or functional assay; remark: listed apart in the source
[8] = biological target: T2, human TGFβ3, mature dimeric form; experiment: cell-based or functional assay; remark: listed apart in the source
[9] = biological target: T3, human TGFβ2, mature receptor-binding …; experiment: cell-based or functional assay; remark: listed apart in the source
[10] = biological target: T2, human TGFβ3, mature dimeric form; experiment: BIAcore T200; remark: listed apart in the source
Outline: (§2)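 SPR kinetics on protein A-captured humanized 2A10 variants (~100 RU), with 3-fold serial dilutions of TGFβ (0.02 nM to 5 nM) injected in HBS-EP, pH 7.4, at 25° C and 50 μl/min. kon and koff from a 1:1 Langmuir fit; KD = koff/kon.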

[11] = biological target: T3, human TGFβ2, mature receptor-binding …; experiment: BIAcore T200; remark: listed apart in the source
Outline: as §2

[12] = biological target: T2, human TGFβ3, mature dimeric form; experiment: SPR
[13] = biological target: T3, human TGFβ2, mature receptor-binding …; experiment: SPR
[14] = biological target: T1, human TGFβ1, mature receptor-binding …; experiment: cell-based or functional assay; remark: listed apart in the source
[15] = biological target: T2, human TGFβ3, mature dimeric form; experiment: cell-based or functional assay; remark: listed apart in the source
[16] = biological target: T3, human TGFβ2, mature receptor-binding …; experiment: cell-based or functional assay; remark: listed apart in the source
[17] = biological target: T1, human TGFβ1, mature receptor-binding …; experiment: SPR; Table 4 screening SPR, affinity at 25 C; no blocking of TGFb1 (>500 nM at 37 C)
[18] = biological target: T1, human TGFβ1, mature receptor-binding …; experiment: BIAcore T200; humanization BIAcore study (Tables 9 and 11), bound only
[19] = biological target: T1, human TGFβ1, mature receptor-binding …; experiment: cell-based or functional assay; remark: listed apart in the source
[20] = biological target: T2, human TGFβ3, mature dimeric form; experiment: cell-based or functional assay; remark: listed apart in the source
[21] = biological target: T3, human TGFβ2, mature receptor-binding …; experiment: cell-based or functional assay; remark: listed apart in the source
[22] = biological target: T2, human TGFβ3, mature dimeric form; experiment: SPR; remark: listed apart in the source
[23] = biological target: T2, human TGFβ3, mature dimeric form; experiment: cell-based or functional assay; remark: listed apart in the source
[24] = biological target: T2, human TGFβ3, mature dimeric form; experiment: BIAcore T200; remark: listed apart in the source
Procedure: as §1

[25] = biological target: T3, human TGFβ2, mature receptor-binding …; experiment: BIAcore T200; remark: listed apart in the source
Procedure: as §1

T1 sequence (P01137 279-390 limits assumed): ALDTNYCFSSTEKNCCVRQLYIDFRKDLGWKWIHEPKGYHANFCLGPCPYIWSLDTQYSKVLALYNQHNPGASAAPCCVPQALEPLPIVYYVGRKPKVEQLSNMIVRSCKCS

B1: h2A10.v2 (antibody, human IgG1, kappa, N297G)
heavy: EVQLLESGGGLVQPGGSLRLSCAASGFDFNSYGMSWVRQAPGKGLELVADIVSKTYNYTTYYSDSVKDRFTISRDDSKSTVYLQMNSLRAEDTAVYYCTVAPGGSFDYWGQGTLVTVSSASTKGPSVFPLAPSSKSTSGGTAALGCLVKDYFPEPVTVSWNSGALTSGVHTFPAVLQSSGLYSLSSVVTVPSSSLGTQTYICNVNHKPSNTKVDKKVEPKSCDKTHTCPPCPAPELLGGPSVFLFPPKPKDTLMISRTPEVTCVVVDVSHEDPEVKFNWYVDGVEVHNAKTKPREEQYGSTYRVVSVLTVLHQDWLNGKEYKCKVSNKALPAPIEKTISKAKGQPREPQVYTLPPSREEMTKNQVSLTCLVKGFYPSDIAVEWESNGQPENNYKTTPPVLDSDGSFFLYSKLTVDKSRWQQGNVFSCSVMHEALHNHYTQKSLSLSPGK
light: DIQLTQSPSSLSASVGDRVTITCRASQSVSISRFNLMHWYQHKPGKQPKLLIYRASNLASGIPSRFSGSGSGTDFTLTISSLQPEDFATYYCQHSRESPWTFGGGTKVEIKRTVAAPSVFIFPPSDEQLKSGTASVVCLLNNFYPREAKVQWKVDNALQSGNSQESVTEQDSKDSTYSLSSTLTLSKADYEKHKVYACEVTHQGLSSPVTKSFNRGEC
notes: also called humanized 2A10 version 2
HEKBlue TGFβ blocking IC50 [1]: > 200 nM | HEKBlue TGFβ blocking IC50 [2]: 0.01 nM | HEKBlue TGFβ blocking IC50 [3]: > 200 nM | Kd [4]: > 5 nM | Kd [5]: 1.3 pM | Kd [6]: 0.314 nM | HEKBlue TGFβ blocking IC50 [7]: > 200 nM | HEKBlue TGFβ blocking IC50 [8]: 0.01 nM | HEKBlue TGFβ blocking IC50 [9]: > 200 nM | Kd [10]: 1.3 pM | Kd [11]: 0.314 nM

B2: 2A10 (antibody, V domains shown)
VH: EVQLVESGGGLVQPKGSLKLSCAASGFDFNSYGMSWVRQAPGKGLDLVADIVSKTYNYTTYYSDSVKDRFTISRDDSQSMVYLQMDNLKTEDTALYYCTVAPGGSFDYWGQGVMVTVSS
VL: DIVLTQSPALAVSLGQRATISCRASQSVSISRFNLMHWYQHKPGQQPKLLIYRASNLASGIPARFSGSGSGTDFTLTINPVQADDLATYYCQHSRESPWTFGGGTKLEIK
notes: anti-TGFβ3; also called rat 2A10; r2A10
Kd [12]: < 2 pM | Kd [13]: 0.046 nM | Blocking IC50 [14]: > 500 nM | Blocking IC50 [15]: 0.02 nM | Blocking IC50 [16]: 193 nM | Kd [17]: 1.6 nM | Kd [18]: > 5 nM | HEKBlue TGFβ blocking IC50 [19]: > 200 nM | HEKBlue TGFβ blocking IC50 [20]: 0.01 nM | HEKBlue TGFβ blocking IC50 [21]: 70 nM | HEKBlue TGFβ blocking IC50 [1]: > 200 nM | HEKBlue TGFβ blocking IC50 [2]: 0.01 nM | HEKBlue TGFβ blocking IC50 [3]: 70 nM | Kd [22]: < 0.01 nM | cell-based IC50 [23]: < 250 pM | Kd [10]: 1.2 pM | Kd [11]: 0.0628 nM | Kd [24]: 1.2 pM | Kd [25]: 0.0628 nM
